# Assay results from article PMC8777244 (Biochemistry and Biophysics Reports, 2022).
# Like-named read-outs stand apart in the source and are kept apart here. Where no end group is shown, it is not given here. The star is where a group is joined. Dansyl = CN(C)c1cccc2c(S(=O)(=O)*)cccc12; MBP = maltose binding protein fusion
# B1: MBP-fused human Nox5β dehydrogenase domain residues 584-719 (domain or fragment, UniProt Q96PH1-4 584-719, looked up)
# chain: KLHKVDFIWINRDQRSFEWFVSLLTKLEMDQAEEAQYGRFLELHMYMTSALGKNDMKAIGLQMALDLLANKEKKDSITGLQTRTQPGRPDWSKVFQKVAAEKKGKVQVFFCGSPALAKVLKGHCEKFGFRFFQENF
# B2: MBP-fused human Nox5β dehydrogenase domain residues 665-719 (domain or fragment)
# chain: {MBP}-TRTQPGRPDWSKVFQKVAAEKKGKVQVFFCGSPALAKVLKGHCEKFGFRFFQENF
# modifications: cysteine pairing not given here
# B3: MBP-fused human Nox5β dehydrogenase domain residues 605-719 (domain or fragment)
# chain: SLLTKLEMDQAEEAQYGRFLELHMYMTSALGKNDMKAIGLQMALDLLANKEKKDSITGLQTRTQPGRPDWSKVFQKVAAEKKGKVQVFFCGSPALAKVLKGHCEKFGFRFFQENF
# B4: MBP-fused human Nox5β dehydrogenase domain residues 528-719 (domain or fragment)
# chain: PTRRIFASEHAVLIGAGIGITPFASILQSIMYRHQKRKHTCPSCQHSWIEGVQDNMKLHKVDFIWINRDQRSFEWFVSLLTKLEMDQAEEAQYGRFLELHMYMTSALGKNDMKAIGLQMALDLLANKEKKDSITGLQTRTQPGRPDWSKVFQKVAAEKKGKVQVFFCGSPALAKVLKGHCEKFGFRFFQENF
# Key:
# [1] = biological target: T1, recombinant 6xHis-tagged calmodulin (UniProt P0DP23 1-149); assay: ITC
# [2] = biological target: T1, recombinant 6xHis-tagged calmodulin; assay: ITC; remark: listed apart in the source
# [3] = biological target: C-terminal half domain of CaM (residues 76-149) fused to blue fluorescent protein (UniProt P0DP23 76-149); assay: ITC
# [4] = biological target: N-terminal half domain of CaM (residues 1-75) fused to cyan fluorescent protein (UniProt P0DP23 1-75); assay: ITC
# [5] = biological target: T1, recombinant 6xHis-tagged calmodulin; assay: other fluorescence titration
# [6] = biological target: T1, recombinant 6xHis-tagged calmodulin; assay: ITC; remark: listed apart in the source
# [7] = biological target: T1, recombinant 6xHis-tagged calmodulin; assay: fluorescence polarisation
# [8] = biological target: Dansyl-labeled CaM (UniProt P0DP23 1-149, Dansyl label (site not stated)); assay: other fluorescence titration
# [9] = biological target: the molecule itself; assay: SEC
# [10] = biological target: T1, recombinant 6xHis-tagged calmodulin; assay: ITC; remark: listed apart in the source
# [11] = biological target: the molecule itself; assay: SEC; remark: listed apart in the source
# [12] = biological target: T1, recombinant 6xHis-tagged calmodulin; assay: ITC; remark: listed apart in the source
# [13] = biological target: T1, recombinant 6xHis-tagged calmodulin; assay: other fluorescence titration; remark: listed apart in the source
binder,measurement,setting,value
"RPDWSKVFQKVAAEKKGKV [human Nox5β CaM-binding domain (CMBD) peptide, residues 671-689]",Ka,[1],1.02e+06 M⁻¹
same,Ka,[2],878000 M⁻¹
same,dH (per mole protein),[2],-6.94 kcal/mol
same,stoichiometry N,[2],1.82 [peptide]/Protein]
same,Ka,[3],950000 M⁻¹
same,dH (per mole protein),[3],-4.02 kcal/mol
same,stoichiometry N,[3],1.04 [peptide]/Protein]
same,Ka,[4],2.42e+06 M⁻¹
same,dH (per mole protein),[4],-3.94 kcal/mol
same,stoichiometry N,[4],0.89 [peptide]/Protein]
same,Ka,[5],1.71e+07 M⁻¹
same,dH (per mole CMBD),[6],-3.81 kcal/mol
same,stoichiometry N,[6],1.83
same,Ka,[7],8.64e+06 M⁻¹
B1,Ka,[8],1.82e+06 M⁻¹
same,stoichiometry N,[8],0.89 [Peptide]/[Protein]
same,stoichiometry N,[9],~3
same,Ka,[10],933000 M⁻¹
same,stoichiometry N,[11],~4
B2,Ka,[8],4.9e+06 M⁻¹
same,stoichiometry N,[8],0.92 [Peptide]/[Protein]
same,Ka,[10],1.39e+06 M⁻¹
B3,Ka,[8],2.52e+06 M⁻¹
same,stoichiometry N,[8],1.02 [Peptide]/[Protein]
same,Ka,[12],~1e+06 M⁻¹
same,Ka,[10],894000 M⁻¹
Dansyl-RPDWSKVFQKVAAEKKGKV [N-terminal Dansyl-labeled human Nox5β CMBD peptide],Ka,[13],4.95e+06 M⁻¹
B4,Ka,[8],1.39e+06 M⁻¹
same,stoichiometry N,[8],0.92 [Peptide]/[Protein]
same,Ka,[10],2.71e+06 M⁻¹
